Patent US20180037644A1 (Pfizer, published 2018)

Key:
[1] = target: T1, human IL-33 WT, reduced with DTT (human, UniProt O95760 112-270); assay: SPR, IL-33 amine-coupled to CM5, Fab in solution, 37 C, Experiment 1
T1 construct: Wild-type cysteines, FLAG tag in the entry; reduced with 3 mM DTT before use; also called huIL33 wt; hu IL-33 (WT + DTT)
T1 sequence: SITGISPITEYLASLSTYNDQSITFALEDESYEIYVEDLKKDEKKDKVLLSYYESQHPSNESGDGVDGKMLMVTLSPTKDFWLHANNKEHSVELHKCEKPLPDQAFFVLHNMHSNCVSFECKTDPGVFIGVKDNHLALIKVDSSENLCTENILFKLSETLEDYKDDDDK
Protocol: (§1) Biacore kinetic assays were conducted at 37° C. at a collection rate of 1 Hz on a Biacore T200 instrument (GE Healthcare). Reduced and non-reduced wild-type human IL-33 and reduced wild-type cynomolgus monkey IL-33 were covalently coupled to a CM5 sensor chip (catalogue number BR100530, GE Healthcare) using an amine coupling kit (catalogue number BR100050, GE Healthcare) according to the manufacturer's protocol. Flow cell 1 was activated and blocked for use as a reference flow cell. […] The dilution and running buffer was HBS-EP+(10 mM HEPES pH 7.4, 0.15M NaCl, 3 mM EDTA, 0.05% P-20). Rate constants and affinities were determined by fitting the resulting sensorgram data to a 1:1 model in Biacore T200 Evaluation software version 1.0 (GE Healthcare). […] Kinetic properties of the bivalent IgG cannot be directly compared to those of monovalent Fab fragments and are not presented here.

[2] = target: T2, wild-type cynomolgus monkey IL-33 (cynomolgus monkey); assay: as above
T2 construct: Used reduced (DTT-treated); His6 in the entry; also called cyno IL-33 (WT + DTT); pfe cyno WT IL-33
T2 chain: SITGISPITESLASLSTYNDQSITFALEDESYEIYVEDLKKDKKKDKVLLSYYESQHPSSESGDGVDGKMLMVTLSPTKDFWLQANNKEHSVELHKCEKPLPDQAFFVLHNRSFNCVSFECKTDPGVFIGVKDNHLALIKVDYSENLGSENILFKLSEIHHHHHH
Protocol: as §1

[3] = target: T1, human IL-33 WT, reduced with DTT; assay: SPR, IL-33 amine-coupled to CM5, Fab in solution, 37 C
Protocol: (§2) Biacore kinetic assays were conducted at 37° C. at a collection rate of 1 Hz on a Biacore T200 instrument (GE Healthcare). Human IL33 (mm2), cynomolgus monkey IL-33, and reduced huIL33 wt were covalently coupled to a CM5 sensor chip (catalogue number BR100530, GE Healthcare) using an amine coupling kit (catalogue number BR100050, GE Healthcare) according to the manufacturer's protocol. […] The dilution and running buffer was HBS-EP+(10 mM HEPES pH 7.4, 0.15M NaCl, 3 mM EDTA, 0.05% P-20). Rate constants and affinities were determined by fitting the resulting sensorgram data to a 1:1 model in Biacore T200 Evaluation software version 1.0 (GE Healthcare).

[4] = target: T3, human IL-33 (mm2) (human, UniProt O95760 112-270); assay: as above
T3 construct: Variant in which all four cysteine residues are serine; the entry carries an N-terminal Met and a C-terminal His6; Biotinylated in some assays; also called hIL-33 (mm2); huIL-33 (mm2)
T3 chain: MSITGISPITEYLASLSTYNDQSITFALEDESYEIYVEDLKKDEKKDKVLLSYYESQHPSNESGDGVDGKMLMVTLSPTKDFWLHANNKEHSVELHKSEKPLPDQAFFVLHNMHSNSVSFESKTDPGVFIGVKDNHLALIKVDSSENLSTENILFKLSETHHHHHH
Protocol: as §2

[5] = target: T4, cynomolgus monkey IL-33 (cys mut) (cynomolgus monkey); assay: as above
T4 construct: Variant in which the three cysteine residues are serine; N-terminal Met and C-terminal His6 in the entry; also called cyno IL-33; cyno IL-33 (cys mut)
T4 chain: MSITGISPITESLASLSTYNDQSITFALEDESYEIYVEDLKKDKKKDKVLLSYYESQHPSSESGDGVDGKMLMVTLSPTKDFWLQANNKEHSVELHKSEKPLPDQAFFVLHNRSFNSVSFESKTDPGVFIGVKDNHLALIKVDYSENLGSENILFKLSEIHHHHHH
Protocol: as §2

[6] = target: T2, wild-type cynomolgus monkey IL-33; assay: SPR, Experiment 2; reference: human IL-33 (WT + DTT)
Protocol: as §1

[7] = target: IL-1β (UniProt P01584 117-269); assay: SPR (Biacore T200), Fab captured on the chip, cytokine injected
From the text: (§3) The panel of cytokines included IL-1α, IL-1β, IL-18, IL-36α, and IL-36γ.

[8] = target: T5, IL-36α (UniProt Q9UHA7 6-158); assay: as above
T5 sequence (looked up): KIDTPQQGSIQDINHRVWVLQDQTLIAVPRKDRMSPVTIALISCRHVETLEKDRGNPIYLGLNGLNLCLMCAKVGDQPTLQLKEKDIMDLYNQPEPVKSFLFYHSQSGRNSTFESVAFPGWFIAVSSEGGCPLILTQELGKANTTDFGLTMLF
From the text: as §3

[9] = target: T6, IL-36γ (UniProt Q9NZH8 18-169); assay: as above
T6 sequence (looked up): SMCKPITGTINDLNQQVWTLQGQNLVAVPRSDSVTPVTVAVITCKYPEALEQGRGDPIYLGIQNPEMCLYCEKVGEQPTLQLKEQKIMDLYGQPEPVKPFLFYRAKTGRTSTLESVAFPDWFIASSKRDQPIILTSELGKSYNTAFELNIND
From the text: as §3

[10] = target: T7, IL-18 (UniProt Q14116 37-193); assay: as above
T7 sequence (looked up): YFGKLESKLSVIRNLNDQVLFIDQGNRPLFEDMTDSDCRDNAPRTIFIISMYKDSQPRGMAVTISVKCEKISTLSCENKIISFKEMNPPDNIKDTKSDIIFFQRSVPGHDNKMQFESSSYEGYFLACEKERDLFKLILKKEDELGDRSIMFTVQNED
From the text: as §3

[11] = target: T8, IL-1α (UniProt P01583 113-271); assay: as above
T8 sequence (looked up): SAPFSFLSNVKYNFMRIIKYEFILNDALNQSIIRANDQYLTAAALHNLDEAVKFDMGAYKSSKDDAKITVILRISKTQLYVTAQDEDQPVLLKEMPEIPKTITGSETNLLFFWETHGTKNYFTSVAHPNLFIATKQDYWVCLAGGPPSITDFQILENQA
From the text: as §3

[12] = target: T1, human IL-33 WT, reduced with DTT; assay: SPR, IL-33 amine-coupled to CM5, Fab in solution, 37 C, Experiment 2
Protocol: as §1

[13] = target: T2, wild-type cynomolgus monkey IL-33; assay: as above
Protocol: as §1

[14] = target: T2, wild-type cynomolgus monkey IL-33; assay: SPR, Experiment 1; reference: human IL-33 (WT + DTT)
Protocol: as §1

B1: IL33-158LS Fab (Fab, V domains shown)
VH: EVQLVESGGGLVQPGGSLRLSCAASGFTFSSYWMYWVRQAPGKGLEWVAAITPNAGEDYYPESVKGRFTISRDNAKNSLYLQMNSLRAEDTAVYYCARGHYYYTSYSLGYWGQGTLVTVSS
VL: DIQMTQSPSSLSASVGDRVTITCKASQNINKHLDWYQQKPGKAPKLLIYFTNNLQTGVPSRFSGSGSGTDFTLTISSLQPEDFATYYCFQYNQGWTFGGGTKVEIKR
**Q.** B1 was tested. Which Kd [1] did it give?
**A.** 0.106 nM

**Q.** What about the koff [1] of the same binder?
**A.** 0.00033 s⁻¹

**Q.** What about the kon [1] of the same binder?
**A.** 3.13e+06 M⁻¹ s⁻¹

**Q.** What about the Kd [2] of the same binder?
**A.** 0.139 nM

**Q.** And the koff [2]?
**A.** 0.00062 s⁻¹

**Q.** What about the kon [2] of the same binder?
**A.** 4.5e+06 M⁻¹ s⁻¹

**Q.** What about the Kd [3] of the same binder?
**A.** 0.0696 nM

**Q.** And the koff [3]?
**A.** 0.000129 s⁻¹

**Q.** What about the kon [3] of the same binder?
**A.** 1.86e+06 M⁻¹ s⁻¹

**Q.** And the Kd [4]?
**A.** 0.013 nM

**Q.** And the koff [4]?
**A.** 3.09e-05 s⁻¹

**Q.** What about the kon [4] of the same binder?
**A.** 2.42e+06 M⁻¹ s⁻¹

**Q.** And the Kd [5]?
**A.** 0.0104 nM

**Q.** And the koff [5]?
**A.** 1.71e-05 s⁻¹

**Q.** And the kon [5]?
**A.** 1.64e+06 M⁻¹ s⁻¹

**Q.** And the “Ratio of cynomolgus monkey KD/human KD” value [6]?
**A.** 2.3

**Q.** Does B1 bind [7]?
**A.** no binding

**Q.** Does B1 bind [8]?
**A.** no binding

**Q.** Does B1 bind [9]?
**A.** no binding

**Q.** Does B1 bind [10]?
**A.** no binding

**Q.** Does B1 bind [11]?
**A.** no binding

**Q.** What about the Kd [12] of the same binder?
**A.** 0.101 nM

**Q.** What about the koff [12] of the same binder?
**A.** 0.000417 s⁻¹

**Q.** And the kon [12]?
**A.** 4.11e+06 M⁻¹ s⁻¹

**Q.** What about the Kd [13] of the same binder?
**A.** 0.228 nM

**Q.** What about the koff [13] of the same binder?
**A.** 0.00121 s⁻¹

**Q.** What about the kon [13] of the same binder?
**A.** 5.32e+06 M⁻¹ s⁻¹

**Q.** What about the “Ratio of cynomolgus monkey KD/human KD” value [14] of the same binder?
**A.** 1.3

B2: IL33-167LS Fab (Fab, V domains shown)
VH: EVQLVESGGGLVQPGGSLRLSCAASGFTFSSYWMYWVRQAPGKGLEWVASITPNAGEDYYPDSVKGRFTISRDNAKNSLYLQMNSLRAEDTAVYYCARGHYYYTSYSLGYWGQGTLVTVSS
VL: DIQMTQSPSSLSASVGDRVTITCKASQNINKHLDWYQQKPGKAPKLLIYFTNNLQTGVPSRFSGSGSGTDFTLTISSLQPEDFATYYCFQYNNGWTFGGGTKVEIKR
**Q.** With B2 as the binder, how does the Kd [1] read?
**A.** 0.091 nM

**Q.** And the koff [1]?
**A.** 0.000276 s⁻¹

**Q.** And the kon [1]?
**A.** 3.03e+06 M⁻¹ s⁻¹

**Q.** And the Kd [2]?
**A.** 0.139 nM

**Q.** And the koff [2]?
**A.** 0.000665 s⁻¹

**Q.** What about the kon [2] of the same binder?
**A.** 4.81e+06 M⁻¹ s⁻¹

**Q.** And the Kd [3]?
**A.** 0.0452 nM

**Q.** What about the koff [3] of the same binder?
**A.** 6.56e-05 s⁻¹

**Q.** What about the kon [3] of the same binder?
**A.** 1.45e+06 M⁻¹ s⁻¹

**Q.** What about the Kd [4] of the same binder?
**A.** 0.0101 nM

**Q.** What about the koff [4] of the same binder?
**A.** 4.8e-05 s⁻¹

**Q.** And the kon [4]?
**A.** 4.75e+06 M⁻¹ s⁻¹

**Q.** And the Kd [5]?
**A.** 0.0134 nM

**Q.** What about the koff [5] of the same binder?
**A.** 2.09e-05 s⁻¹

**Q.** And the kon [5]?
**A.** 1.57e+06 M⁻¹ s⁻¹

**Q.** What about the “Ratio of cynomolgus monkey KD/human KD” value [6] of the same binder?
**A.** 2.5

**Q.** And the Kd [12]?
**A.** 0.089 nM

**Q.** What about the koff [12] of the same binder?
**A.** 0.00035 s⁻¹

**Q.** What about the kon [12] of the same binder?
**A.** 3.96e+06 M⁻¹ s⁻¹

**Q.** And the Kd [13]?
**A.** 0.218 nM

**Q.** What about the koff [13] of the same binder?
**A.** 0.00119 s⁻¹

**Q.** And the kon [13]?
**A.** 5.5e+06 M⁻¹ s⁻¹

**Q.** What about the “Ratio of cynomolgus monkey KD/human KD” value [14] of the same binder?
**A.** 1.5
